Test results: publication PMC10221750

What was measured:
[1] = biological target: BG505 SOSIP.664 trimer (HIV-1 isolate BG505 (Clade A)); experiment: SPR
[2] = biological target: BG505 SOSIP.664 trimer (HIV-1 isolate BG505 (Clade A))

PGT151 Fab
KD1 (site 1, heterogeneous-ligand model) [1]: < 0.1 nM | KD2 (site 2, heterogeneous-ligand model) [1]: 27 nM | Kd [1]: 2 nM | Sm1 (stoichiometry of site 1, heterogeneous-ligand model) (Fab molecules per trimer) [1]: 1.2 | Sm1 + Sm2 (cumulative stoichiometry, heterogeneous-ligand model) (Fab molecules per trimer) [1]: 1.9 | Sm2 (stoichiometry of site 2, heterogeneous-ligand model) (Fab molecules per trimer) [1]: 0.7 | koff [1]: 0.00018 s⁻¹ | koff1 (site 1, heterogeneous-ligand model) [1]: < 1e-05 s⁻¹ | koff2 (site 2, heterogeneous-ligand model) [1]: 0.00076 s⁻¹ | kon [1]: 87000 M⁻¹ s⁻¹ | kon1 (site 1, heterogeneous-ligand model) [1]: 140000 M⁻¹ s⁻¹ | kon2 (site 2, heterogeneous-ligand model) [1]: 28000 M⁻¹ s⁻¹ | stoichiometry N (Fab molecules per trimer) [1]: 1.9

PGT151 IgG (antibody)
neutralization of BG505 pseudovirus in a TZM-bl assay, IC50 [2]: 0.043 µg/mL
